Laboratory results: the nanobody polyreactivity screen of Harvey et al. (2022)

assay: yeast display, Sf9 membrane polyspecificity reagent, FACS + sequencing; frameworks hold sequencing errors
In short: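 Nanobodies from a synthetic yeast display library (Saccharomyces cerevisiae BJ5465), induced 36–48 hours with galactose, were stained 1 hour at 4 °C with 10% biotinylated, detergent-solubilized Sf9 membrane reagent, enriched on streptavidin microbeads, then FACS-sorted. Anti-HA (expression) and streptavidin (reagent binding) fluorescence set low and high (top ~1%) gates. Polyreactivity labels come from the gate of origin. Genes were colony-PCR amplified, MiSeq 2 × 250 sequenced and filtered by CDR length.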

Sequence | polyreactivity (PSR sort gate)
QVQQQESGGGLVQAGGSLRLSCAASGSISRLDYMGWYRQATGKERELVAAIDNGSTTYYADSVKGRLTISRDNAKYTVYLQMNSLKPEDNAVYFCAAVRGRGGTHAYWGQGTQVTVSG | low polyreactivity
QVQQQESGGGLVQAGGSLRLSCAASGYISVVIGMGWYRQSPGKERELVASIAYGAITYYTDSVKGRFTISRDYAKNTEYLQMNSLKAEDTAVYYCAADQPPLAYHWYWGQGTQATVSS | high polyreactivity
QVQQQESGGVLVHAGGSLRLSCAASGTISPLPAMGWYRQAPGKEREFVAGIDTGAISNYADSVKGRFTISRDNAKNTVYLQMNSLKPEDTAVYYCAVFPAAYEYYVRYYTYWGQGTQVTVSS | low polyreactivity
QVQQQESRGGLVQAGGSLRLSCAASCTISQEDWMGWYRQAPGKEREFVAAIGLGSNTNYADSLKGRFTISRDNAKNTVYLQMNSLKPEDTAVYYCAVSVWQYSDHVYRGQGTQVTVSS | low polyreactivity
QVQREESGGGLVQAGGSLRLSCAASGSTFDAYAMGWYRQAPGKERELVAAITWSGGSTYYADSVKGRFTISRDNAKNTVYLQMNSLKPEATAVYYCAADKLGELDYWGQGTQVTVSS | low polyreactivity
QVQRLESGGGLVKAGGSLRLSCSASGIILPYYVMGWYRQAPGKEREFVADITWSGGSTYYADSVKGRFTISRDNAKNTVYLQMNSLKPEDTAVYYCAAEGPWYYFFDMDYWGQGTQVTVSS | high polyreactivity
QVQRLESVGRLVQAGGSLRLSSAPSGIIFRGYVMGWYIQARGKESELVAAITSSTGSTYYADSVKGRFTISRENAKNTGYLLMNILKPEDTAVYYCNVDYYVPNDGYEYWGQGTQVTVSS | low polyreactivity
QVQRVEEGRGLVQAGGTLRISCAASGSIFNQYAMGWYRHAPGQERELVAAITASGGSTYYAVSVKGRFTISRDNAKKTVYLQMNCLKPEDPAVYYCAKVELRDSAELGSDEYDYWGQGTQVTVSS | low polyreactivity
QVQRVESAGGLVQAGGSLRISCAASGSTLYKYAMGWYRQAPGKERELVAAISWSGSSTYYADSVKGRFTISRDNAKNTVYLQMNSLKPVDTAVYYCAAYPRPYIVYTDGYVWYEFDYWGQGTQVTVSS | low polyreactivity
QVQRVESCGGLVQAGGSLRLSCAASGSIFTQYTMGWYRQEPAKERELVAAISRSGGRTYYADSVKGRFTISRDNAKNTVYLQMNSLKPEDTAVYYCATRALYWRYGYDYWGQGTQVTVSS | high polyreactivity
QVQRVESGGALVQAGGSHRLSCAASGSIFYAYAMGWYRLAPGKERELVAAIRSSDSRTYYADSVKGRFTISRDNAKKTVYLQMNCLKPEETAVYYCAAEGSRNVKFDYCGQGTQVTVSS | high polyreactivity
QVQRVESGGGIVQAGGSHRLSCAASGSIFRYYAMGWYRQAPGKEREFVAAISSSGGSTYYADSVKGRFTISRDNAKNTVYLQMNSLKPEDTAVYYCARDWPSYYARQYDYWGQGTQVTVSS | high polyreactivity
QVQRVESGGGIVQAGGSLRLSCAASGSTFSYYAMGWYRQAPGKERELVAAISSSGGNTYYADSVKGRFTISRDNAKNTVYLQMNSLKPEDTAVYYCAKLYRYIYGGMDYWGQGTQVTVSS | high polyreactivity
QVQRVESGGGIVQARGSLRLSCAASGRIFKTNAMRCYRQSRGKERELVAAISSSGGSTYYADSVKGRFTISRDNAKNTVDLQRNSLNPEDTAVYYCAADGRTKGYDSLGQGTQVTVSS | high polyreactivity
QVQRVESGGGLVQAGGSLRLRCAASGRIFQGNAMGWYRQAPGKERELVAAITWRGGTTYYADSVKGRFTISRDNAKNTVYLQMNSLKPEDTAVYYCNADWWRTLESDYWGQGTQVTVSS | low polyreactivity
QVQRVESGGGLVQAGGSLRLSCAASGFIFDDKAMGWYRQAPGKERELVAAITSGGGSTYYADSVKGRFTISRDNAKNTVYLQMNSLKPEDTAVYYCNAVPSQHDEFDYWGQGTQVTVSS | low polyreactivity
QVQRVESGGGLVQAGGSLRLSCAASGGIFAVNVMGWYRPAPGKERELVAAITSTGSTYYADSVKGRFTISRDNAKNTVYLQMNSLKPEDTAVYYCAADYVYYDSYDDTVFGYEYWGQGTQVTVSS | high polyreactivity
QVQRVESGGGLVQAGGSLRLSCAASGGIFFYNAMGWYRQAPGIERELVATIRGGGSTNYADSVKGRFTISRDNAKNTVYLQMNSLKPEDTAVYFCAAVDRRGANYNYWGQGTQVTVSS | high polyreactivity
QVQRVESGGGLVQAGGSLRLSCAASGIIFGSYAMGGYRQAPGKERELVAAITSIGTRTYYADSVKGRFTISRDNAKNTVYLQMNSLKPEDTAVYYCNAPRFWSRHGLRDYWGQGTQVTVSS | high polyreactivity
QVQRVESGGGLVQAGGSLRLSCAASGIIFQSYAMGWYRHAPGKERELVAAISRRGGRTYYADSVKGRFTISRDNAKNTVYLQMNSLKPEDTAVYYCADRYRYAPYDYWGQGTQVTVSS | high polyreactivity
QVQRVESGGGLVQAGGSLRLSCAASGITFRTNTMGWYRQAPGKERELVAAITWDAGSTYYADSVKGRFTISRDNAKHTVYVQMKSLKPEDTAVYYCAARLSYLYGLYPYYYWGQGTQLTVSS | high polyreactivity
QVQRVESGGGLVQAGGSLRLSCAASGITFWGYAMGWYRQAPGKDREFVARINWSGGRTYYAESVKGRFRISRDNAKNTVYLQMNSLKPEDTAVYYCNVVLRSVVSGDYWGQGTQVTVSS | high polyreactivity
QVQRVESGGGLVQAGGSLRLSCAASGLTFDPKDMGWYRQAPGKERELVAAISWSSGSTYYADSVKGRFTISRDNAKNTVYLQMNSLKPEYTAVYYCAAYFTLLFGTELYDYDYWGQGTQVTVSS | high polyreactivity
QVQRVESGGGLVQAGGSLRLSCAASGNIFGYAMGWYRQAPGKERELVAAISRGGGTYYADSVKGRFTISRDNAKNTVYLQMNSLKPEDTADYYCAARLVKGYSRMNYWGQGTQVTVSS | high polyreactivity
QVQRVESGGGLVQAGGSLRLSCAASGNIFVYYAMGWYRQAPGKERELVAAISSDVSTYYADSVKGRFTISRDNAKNTVYLQMNSLKPEDTAVYYCATTGYGSYVIYWGQGTQVTVSS | low polyreactivity
QVQRVESGGGLVQAGGSLRLSCAASGRIFLTNARGWYRQAPGKERELVPAITSGGSTYYADSVKGRFTISRDNAKNTVYLQMNSLKPEDTAVYYCNDDTDRYWPYEYDYWGQGTQVTVSS | low polyreactivity
QVQRVESGGGLVQAGGSLRLSCAASGSIFAVYAMGWYRQAPGNERELVAAINRSGDSTYFADSVKGRFTISRDNAKNTVYLQMKSLKPEDTAVYYCAADWYWWYTRSWVDYWGQGTQVTVSS | high polyreactivity
QVQRVESGGGLVQAGGSLRLSCAASGSLFYLYAMGWYRQAPGKERELVARITIRGGSTYYADSVKGRFTISRDNAKNTVYLQMNSLKPEDTAVYYCAARRPYGDYDYWGQGTQVTVSS | high polyreactivity
QVQRVESGGGLVQAGGSLRLSCAATGFTFSWYVMGWYRQAPGKERELVATITNRGGSTYYSDSVKGRFTISRDNAKNTVYLQMNSLKPEDPAVYYCAARKKGSRVGFDYWGQGTQVTVSS | high polyreactivity
QVQRVESGGGLVQAGGSLRLSCADSGFIFRRYAMGWYRQAPGKERELVAAITSSGGTTYYADSVKGRFTISRDNAKNTVYLQMNSLKPEDTAVYYCNAVRGVYARRSDYWGQGTEVTVSS | high polyreactivity
